This is an account of results in the DeepSol protein solubility set.

This data set in a line: soluble on expression in E. coli; label from the status in PepcDB or PDB records.
As for “MRRSLVVAVMAIMPMVGLANQNSRPDIQVNVPPEVFSTRGQSSQPCIQCCVYQDQNYSEGAVIKVEGVVLQCQRDEKTISTNPLVWRRVKPLEHHHHHH”, the “soluble on expression in E. coli” value is “not soluble”.

For “MRRYLEHLMIKLSEKGVFLASNNEIIAEEHFTGEIKKEEAKKGTIAWSILSSHNTSGNMDKLKIKFDSLASHDITFVGIVQTAKASGMERFPLPYVLTNCHNSLCAVGGTINGDDHVFGLSAAQRYGGIFVPPHIAVIHQYMREMMAGGGKMILGSDSHTRYGALGTMAVGEGGGELVKQLLNDTWDIDYPGVVAVHLTGKPAPYVGPQDVALAIIGAVFKNGYVKNKVMEFVGPGVSALSTDFRNSVDVMTTETTCLSSVWQTDEEVHNWLALHGRGQDYCQLNPQPMAYYDGCISVDLSAIKPMIALPFHPSNVYEIDTLNQNLTDILREIEIESERVAHGKAKLSLLDKVENGRLKVQQGIIAGCSGGNYENVIAAANALRGQSCGNDTFSLAVYPSSQPVFMDLAKKGVVADLIGAGAIIRTAFCGPCFGAGDTPINNGLSIRHTTRNFPNREGSKPANGQMSAVALMDARSIAATAANGGYLTSASELDCWDNVPEYAFDVTPYKNRVYQGFVKGATQQPLIYGPNIKDWPELGALTDNIVLKVCSKILDEVTTTDELIPSGETSSYRSNPIGLAEFTLSRRDPGYVSRSKATAELENQRLAGNVSELTEVFARIKQIAGQEHIDPLQTEIGSMVYAVKPGDGSAREQAASCQRVIGGLANIAEEYATKRYRSNVINWGMLPLQMAEVPTFEVGDYIYIPGIKAALDNPGTTFKGYVIHEDAPVTEITLYMESLTAEEREIIKAGSLINFNKNRQM”, the “soluble on expression in E. coli” value was “not soluble”.

For “MRSDGRKEDQLRPVSIQRDFLEYPEGSCLISFGKTKVICTASVIENVPNWLKGKGQGWITAEYSMLPRATQQRTIRESVQGRIGGRTHEIQRMIGRAMRTAVELTKIGERTIWVDCDVIQADGGARTAAITGAFVAVADAIIKLHKEGIIEETPIKDFVAAVSVGIVNDRILLDLNFEEDSAAQVDMNVVGTGSGRLSEVHTMGEEYSFTKDELIKMLDLAQKGINELIELQKKLYVIQDGKWERSELKEVSSTT”, the “soluble on expression in E. coli” value is given as “soluble”.

Regarding “MRSERSERSDDTDGDTTALALKILVAGGFGVGKTTLVGAVSEIRPLRTEELLSEAGRLVDDTDGIDRKVTTTVAMDFGRITIRSGLSLYLFGTPGQDRFWFLWDELAQGALGAVVLADTRRLADCFPAVDYFEHRHIPFVVAVNCFTGARRHDEYSVLRALDLDPGTPVVLCDARDRDSGKEVLIRLVEYAGRMHTARLLDSVRLEHHHHHH”, the “soluble on expression in E. coli” value was “not soluble”.

Regarding “MRSYRAQGPLPGFYHYYPGVPAVVGVRVEERVNFCPAVWNTGLSADPPLFGVSISPKRFTHGLLLKARRFSASFHPFGQKDLVHWLGSHSGREVDKGQAPHFLGHTGVPILEGAYAAYELELLEVHTFGDHDLFVGRVVAVWEEEGLLDEKGRPKPGLALLYYGKGLYGRPAEETFAP”, the “soluble on expression in E. coli” value is listed as “soluble”.

Regarding “MRTATSTSPATGTPAPVPSRTPDVTVTVIVYNDAGRLPRAVASALRQSHANIEVVISDDHSTDATEEVARELAAHDPRVVYLRLPENSGGCSAPRNRALEIARAPYLMFLDSDDELPERAVEVLLAAHRERDLDFAMGAVHRIREDGGRRTTWMPHLVAERRTLDGIEADPRLLFEHLSTSKMYARAFLDRHGLRFPEGIHYEDQLFSAQAYCLAKTFTVVPEPVYRWYIAPYADADSASISNQRHKLTNVRDRVHVQRLIDAFLAESGHEALREDKDFKFLKHDFRMYAGDLPYRDDTWLASFADLMNPYLDTLAEGAYARLPRAERVVLRLLRDRRLSDVRTAARGLGHDVAPRRVTPDEQSGRVYWGEEVPASPESRRELDLTDLDLDTRPFFTALLRHEITEITRGPGASVDLTVRTYDPALRLPVGPQRAVLHLSPGPRRLTVPFRLSPVRPGLFEGRVRLDLAAARLPLHGFAGTRHPVLRLRHRGRTHTGILLAPLAFPPLTARVPYRTGLTPHRVTLRPEGHNPGRLQITWQPVGTTAKILGPAARRLSTPRTRRAARLLSNILRLEHHHHHH”, the “soluble on expression in E. coli” value is “soluble”.

In the case of “MRTEKEMIDLIMNTAKEDERIRAVIMNGSRVNPNVKKDCFQDFDIIYAVKDIRSFTSNHNWIHRFGEIMIVQMPEEMSLIPADEDGKFPYLMQFMDGNRIDLTLAPVELINNFVRQDSLSKLLLDKDNCMEGFPPASDKDYLIKKPTEKEFLDCCNEFWWCSTNVAKGLWREELSYVKGMLDGPVRDMLIVMLEWHIGMKTDFIVNAGKFGKHFEKYIEKDMWVQFKRTFSNAEYENIWESFFDMGNLFREVANEIANAYGYPYPQGDDDRVTSYLKHVKALPKDSTSIY”, the “soluble on expression in E. coli” value is “not soluble”.

As for “MRTKDIYRLELRKIKIDKRMMKRILRLGIPSGIQQSIISLSNVVVQANVNIFGSTVMAGFGAYNKVDGFVVLPMQSFCMAATTFTGQNIGAGKPERIREG”, the “soluble on expression in E. coli” value is on record as “not soluble”.

In the case of “MRTLITGASGQLGIELSRLLSERHEVIKVYNSSEIQGGYKLDLTDFPRLEDFIIKKRPDVIINAAAMTDVDKCEIEKEKAYKINAEAVRHIVRAGKVIDSYIVHISTDYVFDGEKGNYKEEDIPNPINYYGLSKLLGETFALQDDSLIIRTSGIFRNKGFPIYVYKTLKEGKTVFAFKGYYSPISARKLASAILELLELRKTGIIHVAGERISRFELALKIKEKFNLPGEVKEVDEVRGWIAKRPYDSSLDSSRARKILSTDFYTLDLDGMVV”, the “soluble on expression in E. coli” value is listed as “soluble”.

As for “MRTLRIAQYSVLTVGFAIYMYRLIEEIPIDIRNLNSDSLEGIINSDELCDVTVSNRNRGLLVRNDSLDLDILKAKFTTFFSKR”, the “soluble on expression in E. coli” value is recorded as “not soluble”.

Consider “MRTTYREHLDAFAQDLITMCDTVAAVVEGASTGLLEGSLQSAQHALSLSDELDEVKNRATKRAVQLLSLEAPVARDLRQIVSSIYIIEDFDRMASLAMHIASMARRRHPDLVVPEPIRGYFHEMARLCTEMSDKTRSVLVDPDADVAIVLAADDDAIDDIHEHIMTLLTKKEWPFSTRAAVEVTLLARYYERFADHTVNVAAQIVYLTTGLMPEEYKKKRDDGFEPDEMEARFAQLEEQFANYDWPKPAD”, for which the “soluble on expression in E. coli” value is listed as “not soluble”.

On to “MRVAFCLYKYFPFGGLQRDFMRIAQTVAARGHQVRVYTQSWEGECPDNFELIRVPVKSRTNHGRNAEYYAWVQHHLRDHPVDRVVGFNKMPGLDVYYAADVCYAEKVAQEKGFFYRLTSRYRHYAAFERATFEHGKPTQLLMLTNKQIADFQKHYQTEAERFHILPPGIYPDRKYSQQIPNSRQIYRQKNGISEQQKLLLQVGSDFTRKGVDRSIEALASLPESLRQNTVLYVVGQDKPKKFAALAERSGVGTNVHFFSGRNDIAELMAAADLLLHPAYQEAAGIVLLEAITAGLPVLTTAVCGYAHYIVDANCGEAMTEPFRQDALNEVLLKALTQPSLRNAWAENARYYADTQDLYSLPEKAADIITGDLDG”, for which the “soluble on expression in E. coli” value is reported as “not soluble”.

Turning to “MRVHKVKFLNQHELTKLLALLDLDHGLDWDYFLLLIAKTGLRFGEALGVTPMDFDMAKLTLTINKTWDYKSATGSFAETKNTASVRKVPLDWQVAMQFAAQIKSLPQDKPIFVTDGQRVYNETANDILERKCKRASIPVISIHGLRHTHASLLLYAGVSVGSVARRLGHANMSTTQKTYLHILEHHHHHH”, the “soluble on expression in E. coli” value is “not soluble”.

In the case of “MRVVVTGATGFVGQQVVKALSDRGDQVVALVRSPGKAAKQFAGVPRVEWLGYTPKAAGDWFSALEGADAVIHLAGEPLANGRWTPQRKQEIYDSRVVGTQQLVQAIAQCQQRPRVLVSTSAIGYYGTSDTETFVETHAAGNDFLAKVCGDWEAAAQGVTELGVRLVILRFGIVLGEQGALAKLLLPFQLYLGGPLGSGQQWFSWIHQQDLVRLILTAVDQVGMQGVYNATAPEPLRMADFCRILAEVMQRPSWLPVPAPVLQLLLGEGADVVLKGQRVLPERTLATGFEFHYPNAKTALTNLLKPRYTEGSRLEHHHHHH”, the “soluble on expression in E. coli” value was “soluble”.

In the case of “MRVVVVGTRGSALALAQTRFVVERLKETWPETEFKIRTIKTRGDQGASPREEAIFVKEIQEALLSREIDIAVHSLKDLPTESPRGLKIASVPRRQDPRDVFLGKAAKRLKDLPPGAVVGTSSVRRKAQILALRPDLVVRDLRGNVDTRLAALGNGEYDGIVLAAAGLIRLDLRNRIDEFLDPGEVLPAPGQGALALEVREGDDLAEELCYALHHPPSYHRVRAERAFLRGLGAGCLAPVGALAHVEEDGTLRLEGVLLTPDGKSFIRAEIEGDVSEAEELGLDLARDVLEQGGREILAQIR”, the “soluble on expression in E. coli” value is given as “soluble”.
